The source of these data is patent US20220332804A1 (CSL INNOVATION, published 2022).

Substitutions are numbered along the chain they refer to.

Test in all cases: SPR, antibody captured, C2 as analyte;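 note: biacore SPR at 37 °C, anti-C2 mAbs captured via goat anti-human IgG on CM5 chips, double-referenced sensorgrams fit to a 1:1 kinetic or steady-state model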
Experiment [1] addresses T1, human C2 A709S (human, UniProt P06681 21-752).
T1 sequence: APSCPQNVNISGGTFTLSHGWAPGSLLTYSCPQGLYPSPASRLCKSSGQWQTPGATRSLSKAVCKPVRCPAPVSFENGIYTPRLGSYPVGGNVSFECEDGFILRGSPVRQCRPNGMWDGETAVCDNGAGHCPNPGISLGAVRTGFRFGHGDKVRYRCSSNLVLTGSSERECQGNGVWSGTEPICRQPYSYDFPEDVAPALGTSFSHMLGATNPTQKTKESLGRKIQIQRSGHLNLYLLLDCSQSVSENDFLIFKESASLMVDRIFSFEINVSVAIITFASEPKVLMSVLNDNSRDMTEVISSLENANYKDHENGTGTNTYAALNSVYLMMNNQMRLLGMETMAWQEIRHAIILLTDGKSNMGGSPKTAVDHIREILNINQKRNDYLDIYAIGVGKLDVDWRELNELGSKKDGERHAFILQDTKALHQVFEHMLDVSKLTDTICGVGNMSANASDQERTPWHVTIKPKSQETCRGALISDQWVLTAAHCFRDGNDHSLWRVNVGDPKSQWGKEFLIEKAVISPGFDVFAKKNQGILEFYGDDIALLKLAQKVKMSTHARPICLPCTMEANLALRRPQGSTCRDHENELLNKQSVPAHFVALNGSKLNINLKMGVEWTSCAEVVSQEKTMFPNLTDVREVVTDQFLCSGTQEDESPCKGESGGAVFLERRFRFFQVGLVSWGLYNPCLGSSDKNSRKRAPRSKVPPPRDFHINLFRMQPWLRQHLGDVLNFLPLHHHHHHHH

Experiment [2] has as its target T2, human C2 V418A (human, UniProt P06681 21-752).
T2 sequence: T1 sequence with V398A, S689A

The target of experiment [3] is T3, human C2 E433A (human, UniProt P06681 21-752).
T3 sequence: T1 sequence with E413A, S689A

Experiment [4] concerns the target T4, human C2 K443A (human, UniProt P06681 21-752).
T4 sequence: T1 sequence with K423A, S689A

B1: RF16-226 (antibody, human IgG4 S228P, lambda)
heavy: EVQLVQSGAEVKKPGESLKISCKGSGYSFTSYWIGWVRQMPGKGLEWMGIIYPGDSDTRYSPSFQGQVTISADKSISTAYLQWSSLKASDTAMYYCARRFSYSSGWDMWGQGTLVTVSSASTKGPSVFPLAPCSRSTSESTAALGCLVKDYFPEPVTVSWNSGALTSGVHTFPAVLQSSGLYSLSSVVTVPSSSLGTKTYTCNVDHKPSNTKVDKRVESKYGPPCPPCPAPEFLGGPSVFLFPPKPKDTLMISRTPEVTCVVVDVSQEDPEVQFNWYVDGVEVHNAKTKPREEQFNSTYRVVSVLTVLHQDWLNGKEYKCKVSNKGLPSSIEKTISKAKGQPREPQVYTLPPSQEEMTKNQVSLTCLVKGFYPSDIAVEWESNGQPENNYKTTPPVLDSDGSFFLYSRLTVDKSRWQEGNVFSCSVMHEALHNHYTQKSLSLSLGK
light: SYELTQPPSVSVSPGQTARITCSGDALTSKYVAWYQQKSGLAPLLVIYEDTRRPSGIPAKFSGSSSGSVATLTISGAHGDDEADYYCYSTDASGHQRVFGGGTKLTVLSQPKAAPSVTLFPPSSEELQANKATLVCLISDFYPGAVTVAWKADGSPVKAGVETTKPSKQSNNKYAASSYLSLTPEQWKSHRSYSCQVTHEGSTVEKTVAPTECS
notes: pH-dependent anti-C2 antibody from a phage display library; also called WT
In the case of B1, the Kd in experiment [1] was determined as 127 nM; in experiment [2] it was 8 nM; in experiment [3] it was 2.6 nM. Also, the binding result in experiment [4] is “no binding”.
